Substrate in series [1]: O=CO
Briefly: purified protein. The note with it: 2 mM BV2+ fixed, formate 0.125-200 mM, 50 mM phosphate pH 7.5, 25 °C, anaerobic.

Substrate in series [2]: c1ccc(C[n+]2ccc(-c3cc[n+](Cc4ccccc4)cc3)cc2)cc1
Briefly: purified protein. Type of series: biochemical, Escherichia coli. The note with it: 10 mM formate fixed, BV2+ 0.125-20 mM, 50 mM phosphate pH 7.5, 25 °C, anaerobic, artificial electron acceptor.

The source of these data is paper PMC12176258, “Stabilization of the catalytically active structure of a molybdenum‐dependent formate dehydrogenase depends on a highly conserved lysine residue” (The Febs Journal, 2025).

B1: EcFDH-H (Escherichia coli formate dehydrogenase H) (Escherichia coli K-12) (protein)
chain: MKKVVTVCPYCASGCKINLVVDNGKIVRAEAAQGKTNQGTLCLKGYYGWDFINDTQILTPRLKTPMIRRQRGGKLEPVSWDEALNYVAERLSAIKEKYGPDAIQTTGSSRGTGNETNYVMQKFARAVIGTNNVDCCARVUHGPSVAGLHQSVGNGAMSNAINEIDNTDLVFVFGYNPADSHPIVANHVINAKRNGAKIIVCDPRKIETARIADMHIALKNGSNIALLNAMGHVIIEENLYDKAFVASRTEGFEEYRKIVEGYTPESVEDITGVSASEIRQAARMYAQAKSAAILWGMGVTQFYQGVETVRSLTSLAMLTGNLGKPHAGVNPVRGQNNVQGACDMGALPDTYPGYQYVKDPANREKFAKAWGVESLPAHTGYRISELPHRAAHGEVRAAYIMGEDPLQTDAELSAVRKAFEDLELVIVQDIFMTKTASAADVILPSTSWGEHEGVFTAADRGFQRFFKAVEPKWDLKTDWQIISEIATRMGYPMHYNNTQEIWDELRHLCPDFYGATYEKMGELGFIQWPCRDTSDADQGTSYLFKEKFDTPNGLAQFFTCDWVAPIDKLTDEYPMVLSTVREVGHYSCRSMTGNCAALAALADEPGYAQINTEDAKRLGIEDEALVWVHSRKGKIITRAQVSDRPNKGAIYMTYQWWIGACNELVTENLSPITKTPEYKYCAVRVEPIADQRAAEQYVIDEYNKLKTRLREAALA
notes: full-length selenocysteine-containing enzyme, C-terminal His6-tag, from pTrc99a-fdhF in E. coli JG-X (MC4100 delta-fdhF delta-iscR) with helper pSU21-selC; holds Mo(MGD)2 and one [4Fe-4S] cluster
Regarding B1, the Km in series [1] was 1850 ± 270 µM; in series [2] it was 2750 ± 500 µM.

B2: EcFDH-H (Escherichia coli formate dehydrogenase H) (Escherichia coli K-12; K44R) (protein)
chain: MKKVVTVCPYCASGCKINLVVDNGKIVRAEAAQGKTNQGTLCLRGYYGWDFINDTQILTPRLKTPMIRRQRGGKLEPVSWDEALNYVAERLSAIKEKYGPDAIQTTGSSRGTGNETNYVMQKFARAVIGTNNVDCCARVUHGPSVAGLHQSVGNGAMSNAINEIDNTDLVFVFGYNPADSHPIVANHVINAKRNGAKIIVCDPRKIETARIADMHIALKNGSNIALLNAMGHVIIEENLYDKAFVASRTEGFEEYRKIVEGYTPESVEDITGVSASEIRQAARMYAQAKSAAILWGMGVTQFYQGVETVRSLTSLAMLTGNLGKPHAGVNPVRGQNNVQGACDMGALPDTYPGYQYVKDPANREKFAKAWGVESLPAHTGYRISELPHRAAHGEVRAAYIMGEDPLQTDAELSAVRKAFEDLELVIVQDIFMTKTASAADVILPSTSWGEHEGVFTAADRGFQRFFKAVEPKWDLKTDWQIISEIATRMGYPMHYNNTQEIWDELRHLCPDFYGATYEKMGELGFIQWPCRDTSDADQGTSYLFKEKFDTPNGLAQFFTCDWVAPIDKLTDEYPMVLSTVREVGHYSCRSMTGNCAALAALADEPGYAQINTEDAKRLGIEDEALVWVHSRKGKIITRAQVSDRPNKGAIYMTYQWWIGACNELVTENLSPITKTPEYKYCAVRVEPIADQRAAEQYVIDEYNKLKTRLREAALA
notes: as for B1
Consider B2, for which the results for the Km in series [1] and in series [2] were 58610 ± 6150 µM and 2210 ± 370 µM, respectively.
